Assay results: patent US20240166737A1 (Janssen / Centocor, published 2024)
Values belong to the binder of their own block, whether it stands above or below them.

Experiments:
[1] = target: T1, MSNW10, recombinant full length human MSLN (human, UniProt Q13421 296-598); test: SPR, additional experiments
T1 construct: also called MSNW10.002; FL-MSLN

[2] = target: T2, 14 AA stub (a.a. 290-303 of SEQ ID NO: 247) (human); test: SPR, mAb captured, peptide injected
T2 peptide: GYLVLDLSMQEALS
Description: (§1) The binding was assessed by SPR. Briefly, GAH-Fc was used to capture mAbs on C4 sensor chip followed by antigen injection starting at 30 nM (14 amino acid stub), 100 nM (10-13 amino acid stubs), or 1000 nM (7-9 amino acid stubs) progressing in a 3-fold dilution series in single cycle kinetics mode. HBSP+0.01% BSA was used in the assay.

[3] = target: T3, 13 AA stub (a.a. 291-303 of SEQ ID NO: 247) (human); test: SPR, mAb captured, peptide injected
T3 peptide: YLVLDLSMQEALS
Description: as §1

[4] = target: T4, 12 AA stub region peptide LVLDLSMQEALS (human); test: SPR, mAb captured, peptide injected
T4 construct: free N-terminus; also called 12 AA Peptide
T4 peptide: LVLDLSMQEALS
Description: as §1

[5] = target: T5, 11 AA stub (a.a. 293-303 of SEQ ID NO: 247) (human); test: SPR, mAb captured, peptide injected
T5 peptide: VLDLSMQEALS
Description: as §1

[6] = target: T6, 10 AA stub (a.a. 294-303 of SEQ ID NO: 247) (human); test: SPR, mAb captured, peptide injected
T6 peptide: LDLSMQEALS
Description: as §1

[7] = target: T7, 9 AA stub (a.a. 295-303 of SEQ ID NO: 247) (human); test: SPR, mAb captured, peptide injected
T7 peptide: DLSMQEALS
Description: as §1

[8] = target: T8, 8 AA stub (a.a. 296-303 of SEQ ID NO: 247) (human); test: SPR, mAb captured, peptide injected
T8 construct: also called 8 AA Peptide; peptide of the last 8 C-terminal amino acids
T8 peptide: LSMQEALS
Description: as §1

[9] = target: T9, 7 AA stub (a.a. 297-303 of SEQ ID NO: 247) (human); test: SPR, mAb captured, peptide injected
T9 peptide: SMQEALS
Description: as §1

[10] = target: T10, MSNW11, recombinant soluble (shed) MSLN lacking the C-terminal 7 AAs (human, UniProt Q13421 296-591); test: H838 cell binding with shed MSLN (MSNW11) added
T10 construct: domain: soluble MSLN lacking the C-terminal 7 AAs; also called MSNW11.002; soluble MSLN
Source text: (§2) Table 16 lists the immunization campaigns, antigens used, and number of clones returned at each stage of screening. Clones from which antibody sequences were successfully recovered were first screened for binding to recombinant full length human MSLN (MSNW10) and H838 cells that express MSLN on the cell surface. Binders were further screened for binding to cells in the presence of recombinant soluble MSLN lacking the C-terminal 7 AAs (MSNW11). This form of recombinant MSLN represented the product of cleavage at the closest cleavage site to the C-terminus known at the time, therefore, it theoretically represented the longest form of shed MSLN. The final concentration of shed MSLN in the assays was 100 nM.

[11] = target: T11, human MSLN on the cell surface (human, UniProt Q13421 296-598); test: high content imaging, surface staining of OVCAR8 cells
T11 construct: on cells stands the processed GPI-anchored 40 kDa MSLN; also called membrane MSLN; MSLN on H838, OVCAR-8 (OVCAR8), OVCAR-8 K1/C8, SK-OV-3 cells
Description: OVCAR8 cells were cultured in RPMI 1640 medium supplemented with 10% FCS, 1% L-glutamine and 1% Gentamycin and seeded in Greiner CELLSTAR plate one day before experiment. 24 h after seeding, antibody mixture was prepared by diluting MSLN and control antibodies in Table 21 in full media containing CellMask™ Deep Red Plasma Membrane Stain (ThermoFisher, C10046) in 12 concentrations each with 3 folds dilution starting from 20 μg/ml and 20 μl of which were added directly to the cells in 20 μl. Antibodies were allowed for binding to the cell surface for 2h inside the incubator (37°) C. and the surface bound antibodies were fixed for 15 min at RT by directly adding 30 ul of 10% Formaldehyde (04018-1, Polysciences). Afterwards residual Formaldehyde was removed by washing the cells twice with PBS and the primary antibodies were stained with secondary antibodies (Alexa Fluor 488 goat anti-human IgG, Invitrogen, A11013) complemented with Hoechst 33342 (H3570, ThermoFisher) and HCS CellMask™ Deep Red Stain (ThermoFisher, H32721) in PBS for 1h at RT. After removing unbound antibodies and other dyes by washing the cells 3 times with PBS cells were imaged on the CellVoyager 7000 (Yokogawa, Tokyo, Japan) using a 40×/0.95 objective. Of each well, 9 fields were imaged. Image analysis was performed with Acapella (PerkinElmer, Waltham, MA, USA) and the results stored in Phaedra (OpenAnalytics, Antwerp, Belgium). Data analysis was done in R (www.r-project.org).
The data was then fitted using the four-parameter logistic using least-squares regression, keeping the lower boundary fixed at 0.

[12] = target: T4, 12 AA stub region peptide LVLDLSMQEALS; test: SPR
[13] = target: T1, MSNW10, recombinant full length human …; test: SPR, recombinant full-length human MSLN
[14] = target: T8, 8 AA stub (a.a. 296-303 of SEQ ID NO: …); test: competition of OVCAR8 cell binding by the peptide
[15] = target: T11, human MSLN on the cell surface; test: binding to H838 cells with and without 100 nM recombinant shed MSLN (MSNW11); the two curves lie on each other
Source text: as §2

recombinant CD3 = target: T12, recombinant CD3 (UniProt P07766 23-126); test: SPR
T12 construct: also called CD3 (SPR)

[16] = target: T13, CD3 epsilon on human T-cells (human, UniProt P07766 23-207); test: T cell binding
T13 construct: part of the TCR-CD3 complex on T cells; also called CD3 on T cells

[17] = target: T13, CD3 epsilon on human T-cells; test: cell-based or functional assay
[18] = target: human MSLN on the cell surface (human, UniProt Q13421 296-598); test: flow cytometry (MFI PE) on OVCAR-8 cells
[19] = target: T14, MSLN with Met593Val on cells homozygous for SNP rs1135210 (SNP G|G) (human, UniProt Q13421 296-598); test: binding to homozygous SNP-positive cells
T14 construct: also called homozygous SNP-positive cells; BxPC3, NCI-H322

[20] = target: T13, CD3 epsilon on human T-cells; test: cell-based or functional assay; remark: listed apart in the source
[21] = target: T13, CD3 epsilon on human T-cells; test: T-cell binding assay, FIG. 15
[22] = target: T11, human MSLN on the cell surface; test: flow cytometry (MFI PE) on OVCAR-8 cells

T13 sequence (P07766 23-207 limits assumed): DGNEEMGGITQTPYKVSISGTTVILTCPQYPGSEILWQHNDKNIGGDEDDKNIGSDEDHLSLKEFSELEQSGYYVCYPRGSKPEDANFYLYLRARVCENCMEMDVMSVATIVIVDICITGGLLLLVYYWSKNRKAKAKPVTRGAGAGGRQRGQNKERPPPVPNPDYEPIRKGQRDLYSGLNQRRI
T10 sequence (Q13421 other isoform, or with tags, fused parts or gaps limits assumed): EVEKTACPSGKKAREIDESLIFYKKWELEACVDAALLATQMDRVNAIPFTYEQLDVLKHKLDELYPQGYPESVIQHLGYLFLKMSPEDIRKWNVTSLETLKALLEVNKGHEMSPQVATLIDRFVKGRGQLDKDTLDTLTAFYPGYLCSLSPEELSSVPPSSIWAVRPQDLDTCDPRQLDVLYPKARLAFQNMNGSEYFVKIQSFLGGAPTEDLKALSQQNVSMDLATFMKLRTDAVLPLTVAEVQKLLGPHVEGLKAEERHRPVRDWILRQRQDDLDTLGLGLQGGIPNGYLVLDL
T1 sequence (Q13421 other isoform, or with tags, fused parts or gaps limits assumed): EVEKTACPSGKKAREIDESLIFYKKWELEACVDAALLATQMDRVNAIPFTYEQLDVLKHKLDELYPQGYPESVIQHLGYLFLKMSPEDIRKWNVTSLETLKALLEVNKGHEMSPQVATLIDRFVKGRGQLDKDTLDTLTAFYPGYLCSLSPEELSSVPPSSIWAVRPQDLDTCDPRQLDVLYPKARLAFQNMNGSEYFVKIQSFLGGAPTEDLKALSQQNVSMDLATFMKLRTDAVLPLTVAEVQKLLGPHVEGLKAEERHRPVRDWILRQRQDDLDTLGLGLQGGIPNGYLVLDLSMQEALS
T14 sequence (Q13421 other isoform, or with tags, fused parts or gaps M593V M593V limits assumed): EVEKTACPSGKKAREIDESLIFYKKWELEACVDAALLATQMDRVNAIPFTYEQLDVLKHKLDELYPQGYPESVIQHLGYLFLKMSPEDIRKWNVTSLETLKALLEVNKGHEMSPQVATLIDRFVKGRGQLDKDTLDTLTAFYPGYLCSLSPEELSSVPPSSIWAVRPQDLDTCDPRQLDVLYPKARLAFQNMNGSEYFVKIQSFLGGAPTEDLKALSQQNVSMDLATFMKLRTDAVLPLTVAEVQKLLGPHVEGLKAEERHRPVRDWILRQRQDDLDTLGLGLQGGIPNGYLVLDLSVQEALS
T12 sequence (P07766 23-126): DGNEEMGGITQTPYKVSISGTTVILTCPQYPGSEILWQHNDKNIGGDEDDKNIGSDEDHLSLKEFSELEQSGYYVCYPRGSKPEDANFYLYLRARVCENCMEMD

B3: CD3W245-LH-ScFv (scFv)
scFv: DIQMTQSPSSLSASVGDRVTITCRARQSIGTAIHWYQQKPGKAPKLLIKYASESISGVPSRFSGSGSGTDFTLTISSLQPEDFATYYCQQSGSWPYTFGQGTKLEIKGGSEGKSSGSGSESKSTGGSEVQLVESGGGLVKPGGSLRLSCAASGFTFSRYNMNWVRQAPGKGLEWVSSISTSSNYIYYADSVKGRFTFSRDNAKNSLDLQMSGLRAEDTAIYYCTRGWGPFDYWGQGTLVTVSS
- Kd (recombinant CD3): 0.5 to 1 nM
- EC50 [16]: 20 to 50 nM

B4: MNC3B55 (bispecific antibody)
scFv: EVQLVESGGGLVKPGGSLRLSCAASGFTFSRYNMNWVRQAPGKGLEWVSSISTSSNYIYYADSVKGRFTFSRDNAKNSLDLQMSGLRAEDTAIYYCTRGWGPFDYWGQGTLVTVSSGGSEGKSSGSGSESKSTGGSDIQMTQSPSSLSASVGDRVTITCRARQSIGTAIHWYQQKPGKAPKLLIKYASESISGVPSRFSGSGSGTDFTLTISSLQPEDFATYYCQQSGSWPYTFGQGTKLEIK
VH: QVQLVESGPGQVKPSQTLSLTCAISGDSVSSNSAAWNWIRQSPSRGLEWLGRTYYRSKWYNDYAVSVKSRITINPDTSKNQFSLQLNSVTPEDTAVYYCARRDYSSGGFDYWGQGTTVTVSS
VL: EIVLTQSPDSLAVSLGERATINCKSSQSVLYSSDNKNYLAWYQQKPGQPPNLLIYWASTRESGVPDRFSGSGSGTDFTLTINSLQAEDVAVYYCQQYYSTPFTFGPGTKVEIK
- cytotoxicity EC50, NCI-H838 cells, pan T-cells 5:1 E:T, 48 hours [17]: 0.027 nM

B5: MNC3B192 (bispecific antibody)
chain 1: QSALTQPASVSGSPGQSITISCTGTSSNIGTYKFVSWYQQHPGKAPKVMIYEVSKRPSGVSNRFSGSKSGNTASLTISGLQAEDEADYYCVSYAGSGTLLFGGGTKLTVLGGSEGKSSGSGSESKSTGGSQVQLQQSGPGLVKPSQTLSLTCAISGDSVFNNNAAWSWIRQSPSRGLEWLGRTYYRSKWLYDYAVSVKSRITINPDTSKNQFSLQLNSVTPEDTAVYYCARGYSSSFDYWGQGTLVTVSS
chain 2: B4 VH
chain 3: not shown
- EC50 (read off the curve) [18]: ~8 nM

B6: MNC3B130 (bispecific antibody)
scFv: B3 scFv
VH: B4 VH
VL: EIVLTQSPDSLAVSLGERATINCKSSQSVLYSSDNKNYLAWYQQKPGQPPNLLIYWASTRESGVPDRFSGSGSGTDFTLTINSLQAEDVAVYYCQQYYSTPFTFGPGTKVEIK
notes: MSNB457 Fab x CD3W245 LH scFv; Fc chain 1 T350V/L351Y/F405A/Y407V, Fc chain 2 T350V/T366L/K392/T394W; also called mrMSLN-MSNB457 x W245LH alternative heterodimerization scaffold
- cytotoxicity EC50, NCI-H838 cells, pan T-cells 5:1 E:T, 48 hours [17]: 0.15 nM
- binding result [19]: no binding

Continued, in another order:

- Kd [1]: 3.4 nM
- Kd [2]: 1.99 nM
- Kd [3]: 5.99 nM
- Kd [4]: 4.06 nM
- binding result [5]: no binding (tested: 100 nM)
- binding result [6]: no binding (tested: 100 nM)
- binding result [7]: no binding (tested: 1000 nM)
- binding result [8]: no binding (tested: 1000 nM)
- binding result [9]: no binding (tested: 1000 nM)
- binding result [10]: no binding (tested: 100 nM)
- IC50 [11]: 0.166 µg/mL
- Maximum Value (arbitrary units) [11]: 1.6e+07 arbitrary units
B1: MSLNB569 (antibody, V domains shown)
VH: QVQLQQSGPGLVKPSQTLSLTCAISGDSVSSTRAAWNWIRQSPSRGLEWLGRTYYRSKWYNDYTVSVKSRITINPDTSKNQFSLHLNSVTPEDSAVYFCARGNVGRVDFWGQGTLVTVSS
VL: EIVMTQSPLSLPVTPGEPASISCRSSQSLLHSDGYNYLDWYLQKPGQSPQLLIYLGSNRASGVPDRFSGSGSDTDFTLKISRVEAEDVGVYYCMQGLRTPLTFGPGTKVDIK
notes: mAb; also called MSLNB569.001; MSNB569

- binding result [12]: binds
- binding result [2]: binds
- Kd [3]: 14 nM
- binding result [5]: no binding (tested: 100 nM)
- binding result [6]: no binding (tested: 100 nM)
- binding result [7]: no binding (tested: 1000 nM)
- binding result [9]: no binding (tested: 1000 nM)
- Kd [13]: 6.4 nM
- binding result [10]: no binding (tested: 100 nM)
- binding result [14]: no binding
- IC50 [11]: 0.0735 µg/mL
- Maximum Value (arbitrary units) [11]: 1.46e+07 arbitrary units
- EC50 (read off the curve) [15]: ~0.4 nM
B2: MSNB124 (antibody, V domains shown)
VH: QVQLQQSGPGLVKPSQTLSLTCAISGDSVSSNSVAWHWIRQSPSRGLEWLGRTYHRSKWYNDYAVSVKSRITINPDTSKNQFSLQLNSVTPEDTAVYYCARQILGALDYWGQGTLVTVSS
VL: DIVMTQTPLSLPVTPGEPASISCRSSQSLQFGNGNYLDWYLQKPGQSPQLLIYLGSNRASGVPDRFSGSGSGTDFTLKISRVEAEDVGVYYCMQVLQIPFTFGPGTKVDIK
notes: mAb

- EC50 [21]: 46 nM
- EC50 (read off the curve) [22]: ~8 nM
B7: MNC3B193 (bispecific antibody)
scFv: B3 scFv
VH: B4 VH
VL: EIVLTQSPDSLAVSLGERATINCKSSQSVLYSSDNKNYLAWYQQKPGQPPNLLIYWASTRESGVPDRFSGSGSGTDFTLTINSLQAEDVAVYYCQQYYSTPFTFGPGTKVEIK
notes: Bipod: MSNB457 Fab x CD3W245 LH scFv-Fc; also called CD3W245 LH containing Bipod
- AC90 [nM], cytotoxicity, 1:1 E:T, 72 hours [20]: 0.25 nM
- Max. Activity, cytotoxicity, 1:1 E:T, 72 hours [20]: 91%
- qAC50 [nM], cytotoxicity, 1:1 E:T, 72 hours [20]: 0.1 nM
